Test results taken from article PMC6211762.

Biological target: Macrobrachium rosenbergii nodavirus (MrNV) capsid protein, recombinant, assembled into virus-like particles (Macrobrachium rosenbergii nodavirus)
Test: cryo-EM structure; MrNV VLPs at approximately 0.2 mg/ml, vitrified on thin continuous carbon films; Titan Krios; icosahedral reconstruction at 3.3 Å from 40,883 particles; atomic model of the asymmetric unit

“Macrobrachium rosenbergii nodavirus (MrNV) capsid protein, recombinant, assembled into virus-like particles (natural protein)” gave a stoichiometry N of 180.
